One block for each molecule: values may come before it.
Columns and labels:
PTEN = PTEN activity by Malachite green assay in human HEK cells; format: cell-based; conditions: transfected HEK cells
Excerpt: (§1) To further characterize the mechanism involved in this caspase activation, the present inventors transfected ROCKΔ1 in human HEK cells. […] Since AKT is activated by PI3K, PTEN acts as the upstream PI3K inhibitor. In specific embodiments of the invention, the repression of AKT activity caused by ROCKΔ1 may contribute to its pro-apoptotic effect through the increase in PTEN activity. […] Meanwhile, the decreased level of pAKT by ROCKΔ1 was reverted by blocking PTEN expression. Furthermore, the pAKT level was higher than the control level (FIG. 22D), which further supported this specific embodiment.
Western blot and Malachite green assay. Anti-ROCK-1, caspase 3, PARP, His, α-actin antibodies (Santa Cruz), anti-phospho-AKTser473 (Cell Signaling) and anti-RTEN (Upstate) were purchased. Protein samples for Western blot were prepared and separated as described earlier (Chang et al., 2000). Even loadings were confirmed by Ponceau staining and antibody probed for actin. PTEN activity was evaluated by Malachite green assay (Upstate). 500 μg of cell lysate protein was used for immunoprecipitation.

caspase 3 = assay: Caspase 3 activation in transfected neonatal rat cardiomyocytes (pCaspase3-sensor); format: cell-based; conditions: overexpression vs control plasmid
Excerpt: To determine whether ROCK1 activation by caspase 3 cleavage is able to activate the caspase cascade, thereby constituting an amplification loop of apoptotic responses, the present inventors transfected rat neonatal cardiomyocytes with a plasmid encoding a C-terminally truncated mutant (1-1080) of ROCK1 (ROCK1Δ1) that corresponds closely to the fragment generated by caspase 3 cleavage (1-1113), and a second plasmid, pCaspase3-sensor encoding a fluorescent (EYFP) fusion protein (FIG. 9A). […] Caspase 3 activity in the transfected myocytes was monitored by counting the number of transfected cells with nuclear localization of fluorescent fusion protein.
Apoptosis assay and immunofluorescence analysis. Apoptosis was evaluated using caspase 3 activity and poly(ADP-ribose) polymerase (PARP) cleavage with Western blot in human and mouse heart tissues. With regard to apoptotic cultured neonatal cardiomyocytes, a caspase 3 sensor (BD Biosciences) was introduced to detect the onset of caspase 3 activity (FIG. 9). The vector encodes EYFP (enhanced yellow fluorescent protein) fused with NES (nuclear export signal) and NLS (nuclear localization signal). A caspase 3 specific cleavage site is located between EYFP and NES. […] The quantification was performed by counting the number of transfected cells with the nuclear localization of fluorescent fusion protein over the total transfected cells. […]

phospho-AKT (pAKT) = assay: phospho-AKT level in human HEK cells (Western blot); format: cell-based; conditions: transfected HEK cells
Excerpt: as §1
Cell culture, plasmid constructs, and recombinant adenoviruses. Neonatal rat cardiomyocytes were isolated and cultured in DMEM/F12 medium (1:1) with 10% horse serum (DF10); cells were ready for transfection or virus infection 40 hours after plating. For immunostaining, cells were cultured on pre-coated (with 0.2% gelatin) coverslips. Transfections were performed using LipofectAMINE 2000 (Invitrogen) with Opti-MEM I Reduced Serum Medium (Invitrogen). After 6 hr or O/N, cells were cultured in DF10. With human embryonic kidney (HEK) A293T cells, cells were cultured in DMEM with 10% fetal bovine serum. […]
Western blot and Malachite green assay. […] PTEN activity was evaluated by Malachite green assay (Upstate). […]

SRF = target: T1, SRF (Homo sapiens, UniProt P11831); assay: SRF cleavage by active caspase 3 in vitro in presence or absence of ROCK1Δ1; format: biochemical; conditions: in the presence of active ROCK1
T1 sequence (P11831 1-508): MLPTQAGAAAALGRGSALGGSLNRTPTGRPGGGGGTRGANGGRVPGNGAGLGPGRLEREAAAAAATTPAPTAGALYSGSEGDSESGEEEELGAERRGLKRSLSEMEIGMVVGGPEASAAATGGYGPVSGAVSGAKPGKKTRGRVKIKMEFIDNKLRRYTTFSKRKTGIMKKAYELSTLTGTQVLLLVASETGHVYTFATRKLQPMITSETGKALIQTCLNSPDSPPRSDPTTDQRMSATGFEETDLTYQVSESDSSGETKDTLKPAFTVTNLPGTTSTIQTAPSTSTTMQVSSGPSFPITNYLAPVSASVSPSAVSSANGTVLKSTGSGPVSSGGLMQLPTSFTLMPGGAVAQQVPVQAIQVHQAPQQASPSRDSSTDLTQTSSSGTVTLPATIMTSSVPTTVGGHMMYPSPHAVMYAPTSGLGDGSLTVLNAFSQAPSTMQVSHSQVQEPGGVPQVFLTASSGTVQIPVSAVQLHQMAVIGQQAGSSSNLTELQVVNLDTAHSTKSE
Description: Equal amounts of SRF were incubated with active caspase 3 in the presence or absence of ROCK1Δ1.

caspase 3 activation (nuclear localization of EYFP fusion protein) (caspase 3): no significant effect
B1: full length ROCK1: full length human ROCK-1 expressed from pCAG-ROCK-1 (protein, UniProt Q13464 1-1354, looked up)
chain: MSTGDSFETRFEKMDNLLRDPKSEVNSDCLLDGLDALVYDLDFPALRKNKNIDNFLSRYKDTINKIRDLRMKAEDYEVVKVIGRGAFGEVQLVRHKSTRKVYAMKLLSKFEMIKRSDSAFFWEERDIMAFANSPWVVQLFYAFQDDRYLYMVMEYMPGGDLVNLMSNYDVPEKWARFYTAEVVLALDAIHSMGFIHRDVKPDNMLLDKSGHLKLADFGTCMKMNKEGMVRCDTAVGTPDYISPEVLKSQGGDGYYGRECDWWSVGVFLYEMLVGDTPFYADSLVGTYSKIMNHKNSLTFPDDNDISKEAKNLICAFLTDREVRLGRNGVEEIKRHLFFKNDQWAWETLRDTVAPVVPDLSSDIDTSNFDDLEEDKGEEETFPIPKAFVGNQLPFVGFTYYSNRRYLSSANPNDNRTSSNADKSLQESLQKTIYKLEEQLHNEMQLKDEMEQKCRTSNIKLDKIMKELDEEGNQRRNLESTVSQIEKEKMLLQHRINEYQRKAEQENEKRRNVENEVSTLKDQLEDLKKVSQNSQLANEKLSQLQKQLEEANDLLRTESDTAVRLRKSHTEMSKSISQLESLNRELQERNRILENSKSQTDKDYYQLQAILEAERRDRGHDSEMIGDLQARITSLQEEVKHLKHNLEKVEGERKEAQDMLNHSEKEKNNLEIDLNYKLKSLQQRLEQEVNEHKVTKARLTDKHQSIEEAKSVAMCEMEKKLKEEREAREKAENRVVQIEKQCSMLDVDLKQSQQKLEHLTGNKERMEDEVKNLTLQLEQESNKRLLLQNELKTQAFEADNLKGLEKQMKQEINTLLEAKRLLEFELAQLTKQYRGNEGQMRELQDQLEAEQYFSTLYKTQVKELKEEIEEKNRENLKKIQELQNEKETLATQLDLAETKAESEQLARGLLEEQYFELTQESKKAASRNRQEITDKDHTVSRLEEANSMLTKDIEILRRENEELTEKMKKAEEEYKLEKEEEISNLKAAFEKNINTERTLKTQAVNKLAEIMNRKDFKIDRKKANTQDLRKKEKENRKLQLELNQEREKFNQMVVKHQKELNDMQAQLVEECAHRNELQMQLASKESDIEQLRAKLLDLSDSTSVASFPSADETDGNLPESRIEGWLSVPNRGNIKRYGWKKQYVVVSSKKILFYNDEQDKEQSNPSMVLDIDKLFHVRPVTQGDVYRAETEEIPKIFQILYANEGECRKDVEMEPVQQAEKTNFQNHKGHEFIPTLYHFPANCDACAKPLWHVFKPPPALECRRCHVKCHRDHLDKKEDLICPCKVSYDVTSARDMLLLACSQDEQKKWVTHLVKKIPKNPPSGFVRASPRTLSTRSTANQSFRKVVKNTSGKTS
modifications: full-length
PTEN activity (PTEN): not found

caspase 3 activation (nuclear localization of EYFP fusion protein) (caspase 3): induced significant caspase 3 activation
full-length SRF level after incubation with active caspase 3 (SRF): markedly decreased
B2: ROCK1Δ1: C-terminally truncated mutant (1-1080) of ROCK1, constitutively active, mimics caspase 3 cleaved fragment (protein, UniProt Q13464 1-1080, looked up, fragment)
chain: MSTGDSFETRFEKMDNLLRDPKSEVNSDCLLDGLDALVYDLDFPALRKNKNIDNFLSRYKDTINKIRDLRMKAEDYEVVKVIGRGAFGEVQLVRHKSTRKVYAMKLLSKFEMIKRSDSAFFWEERDIMAFANSPWVVQLFYAFQDDRYLYMVMEYMPGGDLVNLMSNYDVPEKWARFYTAEVVLALDAIHSMGFIHRDVKPDNMLLDKSGHLKLADFGTCMKMNKEGMVRCDTAVGTPDYISPEVLKSQGGDGYYGRECDWWSVGVFLYEMLVGDTPFYADSLVGTYSKIMNHKNSLTFPDDNDISKEAKNLICAFLTDREVRLGRNGVEEIKRHLFFKNDQWAWETLRDTVAPVVPDLSSDIDTSNFDDLEEDKGEEETFPIPKAFVGNQLPFVGFTYYSNRRYLSSANPNDNRTSSNADKSLQESLQKTIYKLEEQLHNEMQLKDEMEQKCRTSNIKLDKIMKELDEEGNQRRNLESTVSQIEKEKMLLQHRINEYQRKAEQENEKRRNVENEVSTLKDQLEDLKKVSQNSQLANEKLSQLQKQLEEANDLLRTESDTAVRLRKSHTEMSKSISQLESLNRELQERNRILENSKSQTDKDYYQLQAILEAERRDRGHDSEMIGDLQARITSLQEEVKHLKHNLEKVEGERKEAQDMLNHSEKEKNNLEIDLNYKLKSLQQRLEQEVNEHKVTKARLTDKHQSIEEAKSVAMCEMEKKLKEEREAREKAENRVVQIEKQCSMLDVDLKQSQQKLEHLTGNKERMEDEVKNLTLQLEQESNKRLLLQNELKTQAFEADNLKGLEKQMKQEINTLLEAKRLLEFELAQLTKQYRGNEGQMRELQDQLEAEQYFSTLYKTQVKELKEEIEEKNRENLKKIQELQNEKETLATQLDLAETKAESEQLARGLLEEQYFELTQESKKAASRNRQEITDKDHTVSRLEEANSMLTKDIEILRRENEELTEKMKKAEEEYKLEKEEEISNLKAAFEKNINTERTLKTQAVNKLAEIMNRKDFKIDRKKANTQDLRKKEKENRKLQLELNQEREKFNQMVVKHQKELNDMQAQLVEECAHRNELQMQL
phospho-AKT (pAKT) level (phospho-AKT (pAKT)): decreased
PTEN activity (PTEN): increased

— US20060142193A1, “Selective inhibition of rock1 in cardiac therapy” (BAYLOR COLLEGE OF MEDICINE, priority 2004, published 2006)
